Measured values as given in paper doi:10.1101/2025.01.26.634952 (bioRxiv, 2025).
Residue numbers refer to the chain shown, from its start. Names may count otherwise.

B1: SmFtsZ-WT (full-length Streptococcus mutans FtsZ) (natural protein)
chain: MAFSFDAASVQGAVIKVIGVGGGGGNAINRMIDEGVAGVEFIAANTDIQALSSSKAETVIQLGPKLTRGLGAGGQPEIGRKAAEESEEALTEALTGADMVFITAGMGGGSGTGAAPVIARIAKGLGSLTVAVVTRPFGFEGSKRGNYAIEGINELRDEVDTLLIISNNNLLEIVDKKTPLLEALSEADNVLRQGVQGITDLITSPGLINLDFADVKTVMASKGNALMGIGIGTGEERVVEAARKAIYSPLLETTIDGAEDVIVNVTGGLDMTLTEAEEASEIVNQAAGHGVNIWLGTSIDDSMKDEIRVTVVATGVRPDKADQVSGIRRQASSYTQPRAQQQAPSSNSAQPNFERRQNFDFDLNESPEMPAAEPQQTQSSSEPQQSAFGDWNLRRENIARPTEGEIDSQLKMSSFSADSDDDDELETPPFFKNR
B2: SmFtsZ-R68A (natural protein)
chain: B1 chain with R68A

Target: the molecule itself
Assay: SAXS

Protein	binding result
B1	binds
B2	binds
